Source: article PMC6086726

Target: Type I-F Csy surveillance complex of Pseudomonas aeruginosa PA14 (Csy1-4 with crRNA) (Pseudomonas aeruginosa PA14) (UniProt Q02ML9)
Assay: SPR

## AcrIF4 (gene 37 from phage JBD26) (natural protein)
  Kd: 400 nM
